Experiments:
[1] = target: AccS′ (soluble C-terminal autokinase module of the AccS sensor kinase), His6-tagged (Azoarcus sp. CIB); experiment: AUC; sedimentation velocity, 20°C, 48,000 rpm, AccS′ 1 mg/ml, in the absence of DTT or with 0.1 mM DTT; dimer to monomers
[2] = target: AccS′ (soluble C-terminal autokinase module of the AccS sensor kinase), His6-tagged (Azoarcus sp. CIB); experiment: AUC; sedimentation velocity, 20°C, 48,000 rpm, AccS′ 1 mg/ml, with 0.1 mM DTT and 250 µM ubiquinone Q0; dimer to monomers

percent of the protein as dimer (in the absence of DTT) [1]: 62%
percent of the protein as dimer (with DTT) [1]: 88%
stoichiometry N [1]: 2
percent of the protein as dimer (with DTT and Q0) [2]: 37%
stoichiometry N [2]: 2
Substance: AccS′ (soluble C-terminal autokinase module of the AccS sensor kinase), His6-tagged (domain or fragment)
